The labels stand for the following.
B1: TBLR1-LgBiT wild type [not stated] / ANKRD11-SmBiT [not stated] (parent complex)
chain 1: MSISSDEVNFLVYRYLQESGFSHSAFTFGIESHISQSNINGALVPPAALISIIQKGLQYVEAEVSINEDGTLFDGRPIESLSLIDAVMPDVVQTRQQAYRDKLAQQQAAAAAAAAAAASQQGSAKNGENTANGEENGAHTIANNHTDMMEVDGDVEIPPNKAVVLRGHESEVFICAWNPVSDLLASGSGDSTARIWNLSENSTSGSTQLVLRHCIREGGQDVPSNKDVTSLDWNSEGTLLATGSYDGFARIWTKDGNLASTLGQHKGPIFALKWNKKGNFILSAGVDKTTIIWDAHTGEAKQQFPFHSAPALDVDWQSNNTFASCSTDMCIHVCKLGQDRPIKTFQGHTNEVNAIKWDPTGNLLASCSDDMTLKIWSMKQDNCVHDLQAHNKEIYTIKWSPTGPGTNNPNANLMLASASFDSTVRLWDVDRGICIHTLTKHQEPVYSVAFSPDGRYLASGSFDKCVHIWNTQTGALVHSYRGTGGIFEVCWNAAGDKVGASASDGSVCVLDLRK
chain 2: MPKGGCPKAPQQEELPLSSDMVEKQTGKKDKDKVSLTKTPKLERGDGGKEVRERASKRKLPFTAGANGEQKDSDTEKQGPERKRIKKEPVTRKAGLLFGMGLSGIRAGYPLSERQQVALLMQMTAEESANSPVDTTPKHPSQSTVCQKGTPNSASKTKDKVNKRNERGETRLHRAAIRGDARRIKELISEGADVNVKDFAGWTALHEACNRGYYDVAKQLLAAGAEVNTKGLDDDTPLHDAANNGHYKVVKLLLRYGGNPQQSNRKGETPLKVANSPTMVNLLLGKGTYTSSEESSTESSEEEDAPSFAPSSSVDGNNTDSEFEKGLKHKAKNPEPQKATAPVKDEYEFDEDDEQDRVPPVDDKHLLKKDYRKETKSNSFISIPKMEVKSYTKNNTIAPKKASHRILSDTSDEEDASVTVGTGEKLRLSAHTILPGSKTREPSNAKQQKEKNKVKKKRKKETKGREVRFGKRSDKFCSSESESESSESGEDDRDSLGSSGCLKGSPLVLKDPSLFSSLSASSTSSHGSSAAQKQNPSHTDQHTKHWRTDNWKTISSPAWSEVSSLSDSTRTRLTSESDYSSEGSSVESLKPVRKRQEHRKRASLSEKKSPFLSSAEGAVPKLDKEGKVVKKHKTKHKHKNKEKGQCSISQELKLKSFTYEYEDSKQKSDKAILLENDLSTENKLKVLKHDRDHFKKEEKLSKMKLEEKEWLFKDEKSLKRIKDTNKDISRSFREEKDRSNKAEKERSLKEKSPKEEKLRLYKEERKKKSKDRPSKLEKKNDLKEDKISKEKEKIFKEDKEKLKKEKVYREDSAFDEYCNKNQFLENEDTKFSLSDDQRDRWFSDLSDSSFDFKGEDSWDSPVTDYRDMKSDSVAKLILETVKEDSKERRRDSRAREKRDYREPFFRKKDRDYLDKNSEKRKEQTEKHKSVPGYLSEKDKKRRESAEAGRDRKDALESCKERRDGRAKPEEAHREELKECGCESGFKDKSDGDFGKGLEPWERHHPAREKEKKDGPDKERKEKTKPERYKEKSSDKDKSEKSILEKCQKDKEFDKCFKEKKDTKEKHKDTHGKDKERKASLDQGKEKKEKAFPGIISEDFSEKKDDKKGKEKSWYIADIFTDESEDDRDSCMGSGFKMGEASDLPRTDGLQEKEEGREAYASDRHRKSSDKQHPERQKDKEPRDRRKDRGAADAGRDKKEKVFEKHKEKKDKESTEKYKDRKDRASVDSTQDKKNKQKLPEKAEKKHAAEDKAKSKHKEKSDKEHSKERKSSRSADAEKSLLEKLEEEALHEYREDSNDKISEVSSDSFTDRGQEPGLTAFLEVSFTEPPGDDKPRESACLPEKLKEKERHRHSSSSSKKSHDRERAKKEKAEKKEKGEDYKEGGSRKDSGQYEKDFLEADAYGVSYNMKADIEDELDKTIELFSTEKKDKNDSEREPSKKIEKELKPYGSSAINILKEKKKREKHREKWRDEKERHRDRHADGLLRHHRDELLRHHRDEQKPATRDKDSPPRVLKDKSRDEGPRLGDAKLKEKFKDGAEKEKGDPVKMSNGNDKVAPSKDPGKKDARPREKLLGDGDLMMTSFERMLSQKDLEIEERHKRHKERMKQMEKLRHRSGDPKLKEKAKPADDGRKKGLDIPAKKPPGLDPPFKDKKLKESTPIPPAAENKLHPASGADSKDWLAGPHMKEVLPASPRPDQSRPTGVPTPTSVLSCPSYEEVMHTPRTPSCSADDYADLVFDCADSQHSTPVPTAPTSACSPSFFDRFSVASSGLSENASQAPARPLSTNLYRSVSVDIRRTPEEEFSVGDKLFRQQSVPAASSYDSPMPPSMEDRAPLPPVPAEKFACLSPGYYSPDYGLPSPKVDALHCPPAAVVTVTPSPEGVFSSLQAKPSPSPRAELLVPSLEGALPPDLDTSEDQQATAAIIPPEPSYLEPLDEGPFSAVITEEPVEWAHPSEQALASSLIGGTSENPVSWPVGSDLLLKSPQRFPESPKRFCPADPLHSAAPGPFSASEAPYPAPPASPAPYALPVAEPGLEDVKDGVDAVPAAISTSEAAPYAPPSGLESFFSNCKSLPEAPLDVAPEPACVAAVAQVEALGPLENSFLDGSRGLSHLGQVEPVPWADAFAGPEDDLDLGPFSLPELPLQTKDAADGEAEPVEESLAPPEEMPPGAPGVINGGDVSTVVAEEPPALPPDQASTRLPAELEPEPSGEPKLDVALEAAVEAETVPEERARGDPDSSVEPAPVPPEQRPLGSGDQGAEAEGPPAASLCAPDGPAPNTVAQAQAADGAGPEDDTEASRAAAPAEGPPGGIQPEAAEPKPTAEAPKAPRVEEIPQRMTRNRAQMLANQSKQGPPPSEKECAPTPAPVTRAKARGSEDDDAQAQHPRKRRFQRSTQQLQQQLNTSTQQTREVIQQTLAAIVDAIKLDAIEPYHSDRANPYFEYLQIRKKIEEKRKILCCITPQAPQCYAEYVTYTGSYLLDGKPLSKLHIPVIAPPPSLAEPLKELFRQQEAVRGKLRLQHSIEREKLIVSCEQEILRVHCRAARTIANQAVPFSACTMLLDSEVYNMPLESQGDENKSVRDRFNARQFISWLQDVDDKYDRMKTCLLMRQQHEAAALNAVQRMEWQLKVQELDPAGHKSLCVNEVPSFYVPMVDVNDDFVLLPA
B2: EGFP-ANKRD11 full length (FL), wild type [not stated] / endogenous TBLR1 of HEK293T cells and of wild-type Flp-In T-REx 293 cells [human (endogenous in HEK293T and Flp-In T-REx 293)] (parent complex)
chain 1: B1 chain 2
chain 2: B1 chain 1

Variants of B1 are the subject of the first assay. Put plainly: NanoLuc complementation assay; n = 3–5 independent transfections per TBLR1 mutant; read off a plot.
As to chain 1 MSISSDEVNLLVYRYLQESGFSHSAFTFGIESHISQSNINGALVPPAALISIIQKGLQYVEAEVSINEDGTLFDGRPIESLSLIDAVMPDVVQTRQQAYRDKLAQQQAAAAAAAAAAASQQGSAKNGENTANGEENGAHTIANNHTDMMEVDGDVEIPPNKAVVLRGHESEVFICAWNPVSDLLASGSGDSTARIWNLSENSTSGSTQLVLRHCIREGGQDVPSNKDVTSLDWNSEGTLLATGSYDGFARIWTKDGNLASTLGQHKGPIFALKWNKKGNFILSAGVDKTTIIWDAHTGEAKQQFPFHSAPALDVDWQSNNTFASCSTDMCIHVCKLGQDRPIKTFQGHTNEVNAIKWDPTGNLLASCSDDMTLKIWSMKQDNCVHDLQAHNKEIYTIKWSPTGPGTNNPNANLMLASASFDSTVRLWDVDRGICIHTLTKHQEPVYSVAFSPDGRYLASGSFDKCVHIWNTQTGALVHSYRGTGGIFEVCWNAAGDKVGASASDGSVCVLDLRK [chain 1 F10L], the ratio to parent was roughly 0.1.

Take chain 1 MSISSDEVNFLVYRYLQESGFSHSAFTFGIESHISQSNINGALVPPAALISIIQKGLQYVEAKVSINEDGTLFDGRPIESLSLIDAVMPDVVQTRQQAYRDKLAQQQAAAAAAAAAAASQQGSAKNGENTANGEENGAHTIANNHTDMMEVDGDVEIPPNKAVVLRGHESEVFICAWNPVSDLLASGSGDSTARIWNLSENSTSGSTQLVLRHCIREGGQDVPSNKDVTSLDWNSEGTLLATGSYDGFARIWTKDGNLASTLGQHKGPIFALKWNKKGNFILSAGVDKTTIIWDAHTGEAKQQFPFHSAPALDVDWQSNNTFASCSTDMCIHVCKLGQDRPIKTFQGHTNEVNAIKWDPTGNLLASCSDDMTLKIWSMKQDNCVHDLQAHNKEIYTIKWSPTGPGTNNPNANLMLASASFDSTVRLWDVDRGICIHTLTKHQEPVYSVAFSPDGRYLASGSFDKCVHIWNTQTGALVHSYRGTGGIFEVCWNAAGDKVGASASDGSVCVLDLRK [chain 1 E63K]: the ratio to parent was roughly 0.37.

In the next assay the parent is B2. Put plainly: co-immunoprecipitation, mass spectrometry; HEK293T cells; n = 3 independent transfections per mutant; read off a plot.
Turning to chain 1 E2522K, the screen value was roughly 2.6 log2.

On to chain 1 R2523W, for which the screen value is roughly 5.7 log2.

Take chain 1 S2475P: the screen value was roughly 8.3 log2.

Regarding chain 1 L2605R, the screen value was roughly 8.2 log2.

Values taken from publication PMC13385800 (2026).
